Data on two molecules can be found in PMC2576301, “The crystal structure of the catalytic domain of a eukaryotic guanylate cyclase” (BMC Structural Biology, 2008).

The target of data set [1] is catalytic domain of the soluble guanylate cyclase CYG12 from Chlamydomonas reinhardtii (Chlamydomonas reinhardtii). The data set can be described thus: crystal structure; sitting-drop vapor diffusion, 20°C; 0.1 M sodium cacodylate pH 5.0-6.4, 42-62% saturated (NH4)2HPO4; molecular replacement; 2.55 Å; one dimer per asymmetric unit.
Substrate in data set [2]: Nc1nc2c(ncn2[C@@H]2O[C@H](COP(=O)(O)OP(=O)(O)OP(=O)(O)O)[C@@H](O)[C@H]2O)c(=O)[nH]1
The data set can be described thus: cGMP formation, enzyme immunoassay; Hill fit. Type of data set: biochemical, Chlamydomonas reinhardtii. Particulars: 4 mM MnCl2, pH 7.5, 24 °C, 5 mM dithiothreitol, 2 min, positive cooperativity, Hill coefficient 1.49 ± 0.16.

A word on the stoichiometry N: it is the number of molecules, sites or subunits per partner or assembly. With “catalytic domain of the soluble guanylate cyclase CYG12 from Chlamydomonas reinhardtii (domain or fragment)”, the stoichiometry N in data set [1] was 2.

B1: guanylate cyclase catalytic domain of CYG12 (Chlamydomonas reinhardtii) (protein)
chain: APAQEHPEATVLFSDIVGFTEIASRSSPLEVCSLLDELYQRFDAAIEEYPQLYKVETIGDAYMVVCNVTVPCDDHADVLLEFALRMHEEASRVASSLGEPVRIRVGMHSGPVVAGVVGRKMPRFCLFGDTVNTASRMESHGEAGQIHISEACYCCLRSKERFEIRERGNITVKGKGTMRTYLLSPLER
notes: catalytic domain, residues 468-655 of 991; His-SMT3 (SUMO) fusion cleaved off; expressed in E. coli Tuner(DE3); homodimer
Take B1: the K0.5 in data set [2] stood at 269 ± 26 µM.
